Experiment in all cases: BLI; Octet RED96; client biotinylated and loaded on streptavidin sensors; Spy or Spy variant in solution at 0.25, 0.5, 1, 1.5 and 2 μM; 40 mM HEPES, 150 mM NaCl, pH 7.5; Kd calculated as koff/kon
Conditions in all cases: both partners purified

For test [1], the target named is T1, Spy_(H96D) (UniProt P77754 24-161, H96D).
T1 construct: source: E. coli BL21 (DE3), purified (Ni-NTA, cation exchange, SEC); not shown: His6, N-terminal, cleaved; SUMO, N-terminal, cleaved
T1 sequence (looked up): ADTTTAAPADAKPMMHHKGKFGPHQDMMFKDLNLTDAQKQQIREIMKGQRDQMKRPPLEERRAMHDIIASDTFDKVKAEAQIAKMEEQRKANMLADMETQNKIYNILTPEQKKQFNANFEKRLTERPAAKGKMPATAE
The gist of the method:
(§1)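 Association was recorded with an Octet RED96 as streptavidin sensors carrying client proteins, biotinylated with EZ-link NHS-biotin at a 1:1 molar ratio, sat in 40 mM HEPES, 150 mM NaCl, pH 7.5 with 0.25 to 2 μM of the analyte protein (0.25, 0.5, 1, 1.5 and 2 μM). Dissociation followed after transfer to analyte-free buffer. Both wavelength-shift phases were fitted in SigmaPlot 12.0 to obtain koff and the observed association rate, whose dependence on analyte concentration yielded kon, with Kd defined as koff divided by kon.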

Test [2] addresses T2, Spy D26K R50D (UniProt P77754 24-161, D26K | R50D).
T2 construct: source: E. coli BL21 (DE3), purified (Ni-NTA, cation exchange, SEC); not shown: His6, N-terminal, cleaved; SUMO, N-terminal, cleaved
T2 sequence (looked up): T1 sequence (looked up) with D26K, R50D, D96H
The gist of the method:
as §1

The target in test [3] is T3, Spy_(R50D) (UniProt P77754 24-161, R50D).
T3 construct: source: E. coli BL21 (DE3), purified (Ni-NTA, cation exchange, SEC); not shown: His6, N-terminal, cleaved; SUMO, N-terminal, cleaved
T3 sequence (looked up): T1 sequence (looked up) with R50D, D96H
The gist of the method: as §1

Test [4] addresses T4, Spy H65D (UniProt P77754 24-161, H65D).
T4 construct: source: E. coli BL21 (DE3), purified (Ni-NTA, cation exchange, SEC); not shown: His6, N-terminal, cleaved; SUMO, N-terminal, cleaved
T4 sequence (looked up): T1 sequence (looked up) with H65D, D96H
The gist of the method:
as §1

Test [5] addresses T5, Spy_(R89D) (UniProt P77754 24-161, R89D).
T5 construct: source: E. coli BL21 (DE3), purified (Ni-NTA, cation exchange, SEC); not shown: His6, N-terminal, cleaved; SUMO, N-terminal, cleaved
T5 sequence (looked up): T1 sequence (looked up) with R89D, D96H
A digest of the protocol:
as §1

The target in test [6] is T6, Spy D26K K121D R122D (UniProt P77754 24-161, D26K | K121D | R122D).
T6 construct: source: E. coli BL21 (DE3), purified (Ni-NTA, cation exchange, SEC); not shown: His6, N-terminal, cleaved; SUMO, N-terminal, cleaved
T6 sequence (looked up): T1 sequence (looked up) with D26K, D96H, K121D, R122D
The gist of the method: as §1

The target in test [7] is T7, Spy D26K K75D (UniProt P77754 24-161, D26K | K75D).
T7 construct: source: E. coli BL21 (DE3), purified (Ni-NTA, cation exchange, SEC); not shown: His6, N-terminal, cleaved; SUMO, N-terminal, cleaved
T7 sequence (looked up): T1 sequence (looked up) with D26K, K75D, D96H
The gist of the method: as §1

The target of test [8] is T8, Spy_(R89D D26K) (UniProt P77754 24-161, D26K | R89D).
T8 construct: also called D26K R89D; source: E. coli BL21 (DE3), purified (Ni-NTA, cation exchange, SEC); not shown: His6, N-terminal, cleaved; SUMO, N-terminal, cleaved
T8 sequence (looked up): T1 sequence (looked up) with D26K, R89D, D96H
A digest of the protocol:
as §1

Positions count from the first letter of the chain named. In names and notes the source's numbering stands.

B1: Im7 H40W L53A I54A (natural protein)
chain: MELKNSISDYTEAEFVQLLKEIEKENVAATDDVLDVLLEWFVKITEHPDGTDAAYYPSDNRDDSPEGIVKEIKEWRAANGKPGFKQG
modifications: biotin (EZ-link NHS-biotin, 1:1 molar ratio of biotin to protein)
notes: Im7 (colicin E7 immunity protein) with H40W L53A I54A; Spy was made with an N-terminal His6-SUMO tag that was cleaved; also called Im7AAW; partially folded client; source: purified by a similar procedure to Spy
For B1, the koff was 0.42 s⁻¹ in test [1]; 0.147 s⁻¹ in test [2]; 0.543 s⁻¹ in test [3]; 0.427 s⁻¹ in test [4]; 0.105 s⁻¹ in test [5]; 0.202 s⁻¹ in test [6]. Besides, the koff is 0.0595 s⁻¹ in test [7] and 0.2 s⁻¹ in test [8].

(Values after paper PMC9122904, “Insights into the client protein release mechanism of the ATP-independent chaperone Spy” (Nature Communications, 2022).)
